B1: Human mature BMP7 protein variant F9 (SEQ ID NO: 8): homodimer wherein each monomeric subunit has SEQ ID NO: 8 (Y65G/I86L/F93V/N110G/Y128W), disulfide linked (protein)
chain: STGSKQRSQNRSKTPKNQEALRMANVAENSSSDQRQACKKHELYVSFRDLGWQDWIIAPEGYAAGYCEGECAFPLNSYMNATNHALVQTLVHVINPETVPKPCCAPTQLGAISVLYFDDSSNVILKKWRNMVVRACGCH
modifications: homodimer, disulfide linked

Tests used:
[1] = system: 3T3-L1 fibroblasts; assay: Alkaline phosphatase stimulation in 3T3-L1 cells; assay type: cell-based; conditions: 1 μg/ml pro-BMP7, 1 μM ATRA, 48 hours
Procedure: 3T3-L1 fibroblasts and MFc7 mouse renal myofibroblasts may be grown essentially as described in Example 2 above. After 48 hours the cells may be washed with PBS prior to the addition of either DMEM/2% dialyzed FBS or OPTI-MEM/2% dialyzed FBS medium containing control vehicle, 1 μg/ml human proBMP7 protein, 1 μM ATRA or a combination of both human BMP7 protein (1 μg/ml) and ATRA (1 μM) may be added for 48 hours. After treatment the cells may be rinsed with PBS and stored at −80° C. for approximately 20 minutes. The cells may be thawed at 37° C. for 30 minutes and 100 μl of PNPP may be added to every well. The plate may be incubated at 37° C. for 1 hour. The absorbance at 405 nm may be read on a plate reader.

[2] = system: RAR alpha; assay: RAR alpha protein expression, Western Blot; assay type: cell-based, mouse; conditions: MFc7 and 3T3-L1 cell lines; 1 μg/mL, 48 hours; Western Blot intensity
Procedure: (§1) 3T3-L1 fibroblasts and MFc7 mouse renal myofibroblasts may be maintained under routine cell culture conditions in DMEM/10% calf serum medium or OPTI-MEM/10% FBS medium, respectively. The cells may be plated in 10 cm tissue culture plates at a seeding density of 500,000 cells/plate. After 48 hours, the cells may be washed with PBS prior to the addition of either DMEM/2% dialyzed FBS or OPTI-MEM/2% dialyzed FBS medium containing 1 μg/mL human BMP7 protein or 1 μg/mL of a human BMP7 protein variant. The cells may be incubated for 48 hours and then rinsed with ice-cold PBS, and then lysed with Protein Extraction Reagent. Then lysates may be centrifuged at 14,000×g for 15 minutes. A Bradford protein assay may be performed to determine the protein concentration of each lysate. Equivalent amounts of protein (for example, 25 μg) may be resolved by SDS-PAGE and then transferred to nitrocellulose membranes for Western Blot analysis. The membranes may be probed with an anti-RAR alpha antibody and/or an anti-RAR gamma antibody.

[3] = system: RAR gamma; assay: RAR gamma protein expression, Western Blot; assay type: cell-based, mouse; conditions: MFc7 and 3T3-L1 cell lines; 1 μg/mL, 48 hours; Western Blot intensity
Procedure: as §1

[4] = system: MFc7 mouse renal myofibroblasts; assay: MFc7 bioassay; assay type: cell-based; conditions: EC50 of wild type BMP7 protein/EC50 of the variant; multiple amino acid changes (Table 3)
Procedure: MFc7 mouse renal myofibroblasts (mouse kidney fibroblast cell line) may be maintained under routine cell culture conditions in OPTI-MEM/10% FBS medium. The cells may be plated in 10 cm tissue culture plates at a seeding density of 500,000 cells/plate. After approximately 48 hours, the cells may be washed with phosphate buffered saline (PBS) prior to the addition of OPTI-MEM/2% dialyzed fetal bovine serum (FBS) medium containing 1 μg/ml BMP7 protein or 1 μg/ml of a BMP7 protein variant and incubated for 48 hours. After treatment the cells may be rinsed with PBS and stored at −80° C. for 20 minutes. After thawing the cells at 37° C. for 30 minutes 100 μl of para-nitrophenyl phosphate (PNPP) may be added. The plate may be incubated at 37° C. for 1 hour. The absorbance at 405 nm may be read utilizing a plate reader. The average relative potency (EC50 of wild type BMP7 protein/EC50 of the BMP7 protein variant) of certain human BMP7 protein variants of the present invention may be calculated based on such readings.

[5] = system: DLD1 C5 tumor xenografts; assay: DLD1 C5 mouse xenograft tumor model; assay type: in vivo; conditions: F9 IP 0.04 mg/kg MWF for 3 weeks followed by 3 weeks irinotecan 20 mg/kg M and Th
Procedure: Female athymic nude mice age 6- to 7-weeks old are available commercially, including from Harlan Laboratories (Indianapolis, Ind.). The mice are allowed to acclimate for one week and fed ad libitum on a normal low fat (4.5%) diet, which may be continued for the duration of the study. Tumor cells are available for purchase from ATCC and may be cultured in cell culture media such as RPMI 1640 (Life Technologies) with L-glutamine, 25 mM HEPES supplemented with 10% FBS and 1 mM Na Pyruvate. Cells may be detached, washed with serum free medium and then resuspended at a final concentration of 50×10^6 cells/mL in serum free RPMI 1640. Tumor cells, approximately 5×106 may be injected subcutaneously in the rear flank of subject mice in a 1:1 mixture of serum free growth medium and Matrigel (Becton Dickinson, Bedford, Mass.). Tumor and body weight measurements may be performed twice weekly. Prior to treatment, mice can be randomized based on tumor size using a randomization algorithm. Treatments may be started when the average tumor volume reaches 100 mm3. […]
All test or control proteins are prepared in phosphate Buffered Saline (PBS) prior to dose. Tumor size may be determined by caliper measurements. […] Log volume data can be analyzed with two-way repeated measures ANOVA by time and treatment using SAS PROC MIXED software (SAS Institutes Inc, Cary, N.C.). […]

| Molecule | fold change in alkaline phosphatase stimulation relative to control vehicle treated cells [1] [fold] | RAR alpha protein expression [2] | RAR gamma protein expression [3] | Average Relative Potency [4] | tumor response [5] |
| --- | --- | --- | --- | --- | --- |
| Wild type human pro-BMP7: homodimers of wild type human mature BMP7 in a non-covalent complex with wild type human pro-domain [reference compound] | 1.2 |  |  |  |  |
| B1 |  | stimulated | stimulated | 69 | tumor regression |

Reference: US11466066B2, “Variants of human BMP7 protein” (ELI LILLY AND COMPANY, priority 2017, dated 2022)
